We go through four molecules from patent publication US20260240999A1, “METHODS FOR EX VIVO ENRICHMENT AND EXPANSION OF TUMOR REACTIVE T CELLS AND RELATED COMPOSITIONS THEREOF” (H. LEE MOFFITT CANCER CENTER AND RESEARCH INSTITUTE, INC., priority 2022, published 2026).

Test [1] deals with previously expanded human T cells from three healthy donors. The test is described as follows: Effect of T cell adjuvants on T cell viability (total viable CD3+ cell count). To be noted: 62.5 IU/ml-1000 IU/ml. It counts as cell-based. How it is done:
Cells were expanded from PBMC derived from Ficoll gradient separation from three healthy donor's apheresis material. […] Because the studies were carried out in healthy donors, stimulation of the T cells was carried out with anti-CD3 (OKT3) stimulation in order to mimic conditions present in the tumor microenvironment (TME).
Cells were next seeded into gas permeable 100M culture vessels and expanded for 7-14 days to achieve a large bank of T cells, and cryopreserved. […] Half of wells were additionally supplemented with 50 ng/mL OKT3, a human anti-CD3 monoclonal antibody. In total, 15 test adjuvant agents were tested for their impact on cell viability in the presence and absence of anti-CD3 activation (see Table E3). Cells were cultured for 6 days total, including a 50% medium exchange on culture day 3, and monitored for total viable CD3+ cell count.

Test [2] has the same test system. The test is described as follows: Cytokines, modulators and agonist antibodies with IL-2 on T cell number and memory phenotype. It counts as cell-based. To be noted: for percent naïve and central memory T cells at Day 6: cytokine plus 300 IU/mL IL-2; for CD3+ cells/mL on Day 6: cytokine plus 300 IU/mL IL-2 vs IL-2 alone. The procedure:
PBMC from three healthy donors were activated, expanded, and cryopreserved as described in Example 11. […] As previously described, stimulation of the healthy donor T cells prior to cryopreservation were carried out with anti-CD3 (OKT3) stimulation in order to mimic conditions present in the tumor microenvironment (TME).
Cells were next seeded into gas permeable 100M culture vessels and expanded for 7-14 days to achieve a large bank of T cells, and cryopreserved.
Cells were maintained in culture for 6 days, with a 50% medium exchange occurring at 3 days post culture initiation.
At the end of the culture period for all culture conditions, cells were assessed for cell count and sub-phenotypes of naïve and central memory T cells by flow cytometry by staining with CD45RA and CCR7 (naïve, CD45RA+ CCR7+; “central” memory, CD45RA-CCR7+).

Where [3] appears, read: at each of three tested concentrations (3.9, 250, and 1000 IU/mL).

B1: IL-7: recombinant cytokine (protein, UniProt P13232 26-177, looked up)
Interleukin-7: DCDIEGKDGKQYESVLMVSIDQLLDSMKEIGSNCLNNEFNFFKRHICDANKEGMFLFRAARKLRQFLKMNSTGDFDLHLLKVSEGTTILLNCTGQVKGRKPAALGEAQPTKSLEENKSLKEQKKLNDLCFLKRLLQEIKTCWNKILMGTKEH
Consider B1, for which the “dose response of cell number” value in test [1] is recorded as “dose dependent response, wherein cell number increased with increasing concentration”. Also, in test [2], the “percent naïve and central memory T cells at Day 6” value was “measured increase in the percent naïve and central memory T cells”; the “CD3+ cells/mL on Day 6” value is recorded as “increase in CD3+ cells/mL on Day 6”.

B2: IL-23: recombinant cytokine, P19 (SEQ ID NO: 1) and P40 (SEQ ID NO: 2) subunits (protein)
chain 1: RAVPGGSSPAWTQCQQLSQKLCTLAWSAHPLVGHMDLREEGDEETTNDVPHIQCGDGCDPQGLRDNSQFCLQRIHQGLIFYEKLLGSDIFTGEPSLLPDSPVGQLHASLLGLSQLLQPEGHHWETQQIPSLSPSQPWQRLLLRFKILRSLQAFVAVAARVFAHGAATLSP
chain 2: IWELKKDVYVVELDWYPDAPGEMVVLTCDTPEEDGITWTLDQSSEVLGSGKTLTIQVKEFGDAGQYTCHKGGEVLSHSLLLLHKKEDGIWSTDILKDQKEPKNKTFLRCEAKNYSGRFTCWWLTTISTDLTFSVKSSRGSSDPQGVTCGAATLSAERVRGDNKEYEYSVECQEDSACPAAEESLPIEVMVDAVHKLKYENYTSSFFIRDIIKPDPPKNLQLKPLKNSRQVEVSWEYPDTWSTPHSYFSLTFCVQVQGKSKREKKDRVFTDKTSATVICRKNASISVRAQDRYYSSSWSEWASVPCS
modifications: P19, UniProt Q9NPF7 20-189; P40, UniProt P29460 23-328
Consider B2, for which, in test [2], the “percent naïve and central memory T cells at Day 6” value is “measured increase in the percent naïve and central memory T cells”; the “CD3+ cells/mL on Day 6” value was “increase in CD3+ cells/mL on Day 6”.

B3: IL-35: heterodimeric protein of p35 subunit from IL-12 and EBI3 (protein, UniProt P29459 23-219; Q14213 21-229, looked up)
Interleukin-12 subunit alpha: RNLPVATPDPGMFPCLHHSQNLLRAVSNMLQKARQTLEFYPCTSEEIDHEDITKDKTSTVEACLPLELTKNESCLNSRETSFITNGSCLASRKTSFMMALCLSSIYEDLKMYQVEFKTMNAKLLMDPKRQIFLDQNMLAVIDELMQALNFNSETVPQKSSLEEPDFYKTKIKLCILLHAFRIRAVTIDRVMSYLNAS
Interleukin-27 subunit beta: RKGPPAALTLPRVQCRASRYPIAVDCSWTLPPAPNSTSPVSFIATYRLGMAARGHSWPCLQQTPTSTSCTITDVQLFSMAPYVLNVTAVHPWGSSSSFVPFITEHIIKPDPPEGVRLSPLAERQLQVQWEPPGSWPFPEIFSLKYWIRYKRQGAARFHRVGPIEATSFILRAVRPRARYYVQVAAQDLTDYGELSDWSLPATATMSLGK
With B3, in test [2], the “percent naïve and central memory T cells at Day 6” value was “measured increase in the percent naïve and central memory T cells”; the “CD3+ cells/mL on Day 6” value is reported as “increase in CD3+ cells/mL on Day 6”.

B4: IL-27: recombinant cytokine, heterodimer of IL27A (p28) and EBI3 (protein, UniProt Q8NEV9 29-243; Q14213 21-229, looked up)
Interleukin-27 subunit alpha: FPRPPGRPQLSLQELRREFTVSLHLARKLLSEVRGQAHRFAESHLPGVNLYLLPLGEQLPDVSLTFQAWRRLSDPERLCFISTTLQPFHALLGGLGTQGRWTNMERMQLWAMRLDLRDLQRHLRFQVLAAGFNLPEEEEEEEEEEEEERKGLLPGALGSALQGPAQVSWPQLLSTYRLLHSLELVLSRAVRELLLLSKAGHSVWPLGFPTLSPQP
Interleukin-27 subunit beta: RKGPPAALTLPRVQCRASRYPIAVDCSWTLPPAPNSTSPVSFIATYRLGMAARGHSWPCLQQTPTSTSCTITDVQLFSMAPYVLNVTAVHPWGSSSSFVPFITEHIIKPDPPEGVRLSPLAERQLQVQWEPPGSWPFPEIFSLKYWIRYKRQGAARFHRVGPIEATSFILRAVRPRARYYVQVAAQDLTDYGELSDWSLPATATMSLGK
For B4, in test [2] (setting [3]), the “CD3+ cell number” value is on record as “significant increase in CD3+ cell number”; the “percent naïve and central memory T cells” value was “significant increase in CD3+ cell number as well as percent naïve and central memory T cells”. Moreover, in test [2], the “percent naïve and central memory T cells at Day 6” value was “measured increase in the percent naïve and central memory T cells”; the “CD3+ cells/mL on Day 6” value was “increase in CD3+ cells/mL on Day 6”.
